From US20210277110A1 (Janssen / Centocor, published 2021)
Changes are numbered by the printed parent chain. Read-outs that look alike come from different tables or passages of the source. Values belong to the binder of their own block, whether it stands above or below them.

How the values were obtained:
[1] = molecular target: T1, recombinant human TIM-3-Fc fusion protein (huTIM-3-Fc) (human, UniProt Q8TDQ0 22-200); test: competition ELISA on coated Fc-TIM-3, competitor galectin-9
T1 construct: range 22-200; Bought from R&D Systems (NS0-derived); Deglycosylated for HDX-MS; also called recombinant human Fc-TIM-3 chimera; TIM-3 IgG1 Fc Chimera; not shown: IgG1 Fc of the bought chimera

[2] = molecular target: T2, cyno TIM-3 on transfected cells (cyno, UniProt A0A2K5U3G7 22-294); test: binding to cells transfected with cyno TIM-3
T2 construct: whole, on cells; also called Cyno cells
T2 sequence: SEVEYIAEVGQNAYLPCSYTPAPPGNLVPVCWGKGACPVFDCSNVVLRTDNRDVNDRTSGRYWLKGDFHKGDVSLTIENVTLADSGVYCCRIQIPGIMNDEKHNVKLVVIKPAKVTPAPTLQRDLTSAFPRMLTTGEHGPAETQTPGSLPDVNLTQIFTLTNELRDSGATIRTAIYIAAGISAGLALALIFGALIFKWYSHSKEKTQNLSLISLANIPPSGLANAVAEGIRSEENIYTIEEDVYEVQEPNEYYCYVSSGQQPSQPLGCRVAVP

[3] = molecular target: T3, Full length human TIM-3 on transfected cells (human, UniProt Q8TDQ0 22-301); test: binding to cells transfected with human TIM-3
T3 construct: also called Human cells

[4] = molecular target: T4, Extracellular domain of cyno PD1 (cPD1-ECD) (Macaca fascicularis (cynomolgus)); test: SPR ProteOn, cynoPD1-ECD; RANGE low replicate
T4 construct: Expressed with a hexahistidine tag or as Fc fusion; also called cynoPD1-ECD; cynoPD-1-ECD
T4 chain: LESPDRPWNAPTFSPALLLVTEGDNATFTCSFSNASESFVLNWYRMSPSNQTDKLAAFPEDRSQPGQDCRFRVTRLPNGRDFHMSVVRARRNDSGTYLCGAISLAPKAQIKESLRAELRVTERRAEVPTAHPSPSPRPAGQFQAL

[5] = molecular target: T4, Extracellular domain of cyno PD1 …; test: SPR ProteOn, cynoPD1-ECD; RANGE high replicate; RANGE high replicate
[6] = molecular target: T4, Extracellular domain of cyno PD1 …; test: SPR ProteOn, captured mAb, cynoPD1-ECD analyte
[7] = molecular target: T5, Extracellular domain of human PD1 (huPD1-ECD) (human, UniProt Q15116 25-169, biotinylated in the ligand inhibition assay (sites not given)); test: MSD ligand inhibition, competitor coated cynoPDL1-ECD
T5 construct: Expressed with a hexahistidine tag or as Fc fusion; also called biotinylated PD-1

[8] = molecular target: T5, Extracellular domain of human PD1 …; test: SPR ProteOn, captured mAb, huPD1-ECD analyte; approximation (chi2 > 20%)
Method: (§1) Affinity measurements using Surface Plasmon Resonance (SPR) were performed using a ProteOn XPR36 system. A biosensor surface was prepared by coupling a mixture of anti-IgG Fc modified alginate polymer layer surface of a GLC chip using the manufacturer instructions for amine-coupling chemistry. […] The collected data were processed and fitted to a Langmuir 1:1 binding model. The result for each mAb was reported in the format of kₒₙ (On-rate), koff (Off-rate) and KD (equilibrium dissociation constant).
STDEV were calculated for 3 or more replicates generated for human and cyno proteins. If less than 3 replicates were calculated, RANGE was indicated. RANGE is defined as the low and high values for the replicates tested.

[9] = molecular target: T6, Full length human PD1 (huPD1) on cells (human, UniProt Q15116 25-288); test: flow cytometry, PHA-stimulated Jurkat cells
T6 construct: on T cells of human donors in the MLR and CMV assays (functional); also called PD-1 on Jurkat cells
Method: (§2) Jurkat cells were stimulated overnight with 20 ng/ml of PHA, harvested, washed, and checked for viability. The cells were then incubated at 6-10° C. for 45-60 minutes with various concentrations of test antibodies, washed and incubated at 6-10° C. for 45-60 minutes with FITC-labeled goat anti-human IgG. The cells were washed and fixed with BD Cytofix, refrigerated overnight and analyzed on a MACSQuant flow cytometer. The percentage of PD-1 positive cells at each antibody concentration was plotted vs log of the antibody concentration and EC₅₀ values were generated in Prism.

[10] = molecular target: T4, Extracellular domain of cyno PD1 …; test: SPR ProteOn, cynoPD1-ECD; RANGE high replicate
[11] = molecular target: T5, Extracellular domain of human PD1 …; test: SPR ProteOn, captured mAb, huPD1-ECD analyte
Method: as §1
STDEV were calculated for 3 or more replicates generated for human and cyno proteins. If less than 3 replicates were calculated, RANGE was indicated. RANGE is defined as the low and high values for the replicates tested. For samples in the Table 10 or Table 11 without value indicated in RANGE or STDEV, only one experiment was performed.

[12] = molecular target: T5, Extracellular domain of human PD1 …; test: SPR ProteOn, huPD1-ECD; RANGE low replicate
Method: as §1
(§3) STDEV were calculated for 3 or more replicates generated for human and cyno proteins. If less than 3 replicates were calculated, RANGE is indicated. RANGE is defined as the low and high values for the replicates tested. For samples without RANGE or STDEV, only one experiment was performed

[13] = molecular target: T4, Extracellular domain of cyno PD1 …; test: SPR ProteOn, cynoPD1-ECD; RANGE high replicate
Method: as §1, §3

[14] = molecular target: T5, Extracellular domain of human PD1 …; test: SPR ProteOn, captured mAb, huPD1-ECD analyte; remark: listed apart in the source
[15] = molecular target: T4, Extracellular domain of cyno PD1 …; test: SPR ProteOn, cynoPD1-ECD; RANGE low replicate
Method: as §1, §3

[16] = molecular target: T5, Extracellular domain of human PD1 …; test: MSD ligand inhibition, competitor coated cynoPDL1-ECD; remark: listed apart in the source
Method: (§4) The ligand inhibition assay design was MSD (Mescoscale Discovery) based. A MSD plate was directly coated with ligand (cynoPDL1-ECD, huPDL1-ECD or huPDL2-ECD) and incubated overnight at 4° C. The following day, the coating solution was removed and the plate was blocked. […] Depending on the panel of antibodies to be tested, the antibodies were tested as titrations or at a fixed concentration.

[17] = molecular target: T5, Extracellular domain of human PD1 …; test: MSD ligand inhibition, competitor coated huPDL1-ECD
Method: as §4

[18] = molecular target: T5, Extracellular domain of human PD1 …; test: SPR ProteOn, captured mAb; antigen species not given
[19] = molecular target: T5, Extracellular domain of human PD1 …; test: SPR ProteOn, huPD1-ECD; RANGE high replicate; RANGE high replicate
Method: as §1, §3

[20] = molecular target: T5, Extracellular domain of human PD1 …; test: MSD ligand inhibition, competitor coated huPDL2-ECD
Method: as §4

[21] = molecular target: T4, Extracellular domain of cyno PD1 …; test: SPR ProteOn, cynoPD1-ECD; RANGE high replicate; RANGE high replicate
Method: as §1, §3

[22] = molecular target: T4, Extracellular domain of cyno PD1 …; test: SPR ProteOn, captured mAb, cynoPD1-ECD analyte
Method: as §1, §3

[23] = molecular target: T6, Full length human PD1 (huPD1) on cells; test: flow cytometry, PHA-stimulated Jurkat cells; remark: listed apart in the source
Method: as §2

[24] = molecular target: T5, Extracellular domain of human PD1 …; test: SPR ProteOn, huPD1-ECD; RANGE high replicate
Method: as §1, §3

[25] = molecular target: T4, Extracellular domain of cyno PD1 …; test: SPR ProteOn, cynoPD1-ECD; RANGE low replicate; RANGE low replicate
Method: as §1, §3

[26] = molecular target: T6, Full length human PD1 (huPD1) on cells; test: cell-based or functional assay

T5 sequence (Q15116 25-169 limits assumed): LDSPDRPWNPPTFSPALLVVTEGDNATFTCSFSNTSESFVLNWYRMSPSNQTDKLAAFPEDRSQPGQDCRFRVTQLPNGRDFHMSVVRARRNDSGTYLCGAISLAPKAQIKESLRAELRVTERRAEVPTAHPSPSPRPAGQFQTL
T6 sequence (Q15116 25-288 limits assumed): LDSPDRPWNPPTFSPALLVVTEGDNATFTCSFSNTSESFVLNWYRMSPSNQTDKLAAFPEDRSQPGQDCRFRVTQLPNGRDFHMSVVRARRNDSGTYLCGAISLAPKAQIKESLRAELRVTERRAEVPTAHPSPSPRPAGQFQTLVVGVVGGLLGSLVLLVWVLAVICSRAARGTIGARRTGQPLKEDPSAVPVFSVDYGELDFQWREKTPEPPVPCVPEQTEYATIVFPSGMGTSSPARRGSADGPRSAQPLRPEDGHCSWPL

Galectin 9 Inhibition, % inhibition (maximal) [1]: 60.7% | EC50 [2]: 0.08 µg/mL | EC50 [3]: 0.35 µg/mL
B1: TM3B190 (antibody, V domains shown)
VH: DVQLQESGPGLVKPSQSLSLTCTVTGYSITSDYAWNWIRQFPGNKLEWMGYINYSGRTSYNPSLKSRISITRDTSKNQFFLQLNSVTTEDTATYYCTSGGNFDYWGQGTTLTVSS
VL: DIVMTQSPSSMSASLGDRITITCQATQDIVKNLNWYQQKPGKPPSFLIHYVTELAEGVPSRFSGSGSGSDYSLTISNLESEDFADYYCLQFYEFPLTFGAGTKLELK
notes: Mouse-derived variable domains; also called TM3H96/TM3L62

Galectin 9 Inhibition, % inhibition (maximal) [1]: 76.4% | EC50 [2]: 0.19 µg/mL | EC50 [3]: 0.74 µg/mL
B4: TM3B189 (antibody, V domains shown)
VH: EVQLQQSGPELLKPGASVKMSCKASGYTFTSYVMYWVKQKPGQGLEWIGYINPYNDGTKYNEKFKGKATLTSDKSSSTAYMELSRLTSEDSAVYYCTRDDYDVAPFAYWGQGTLVTVSA
VL: DIVLTQSPASLAVSLGQRATISCRASESLDSYGNSYIHWYQQKPGQPPKLLIYLASNLESGVPARFSGSGSKTDFTLTIDPVEADDPATYYCQQNNEDPFTFGSGTKLEIK
notes: Mouse-derived variable domains; also called TM3H141/TM3L61

The remaining lines, values behind:

B2: PD1B149 (antibody, human IgG2, kappa, V domains shown)
VH: QVQLVQSGAEVKKPGSSVKVSCKASGGTFSSYAISWVRQAPGQGLEWMGGIIPIFGTANYAQKFQGRVTITADESTSTAYMELSSLRSEDTAVYYCARPGLAAAYDTGNLDYWGQGTLVTVSS
VL: EIVLTQSPATLSLSPGERATLSCRASQSVRNYLAWYQQKPGQAPRLLIHDASNRATGIPARFSGSGSGTDFTLTISSLEPEDFAVYYCQQRNYWPLTFGQGTKVEIKR
notes: IgG2sigma/kappa; VH 41, VL 50; also called PD1H24/PD1L128
Kd [4]: 10.9 nM | koff [4]: 0.00348 s⁻¹ | kon [4]: 304000 M⁻¹ s⁻¹ | koff [5]: 0.00365 s⁻¹ | kon [5]: 336000 M⁻¹ s⁻¹ | Kd [6]: 11.2 nM | koff [6]: 0.00357 s⁻¹ | kon [6]: 320000 M⁻¹ s⁻¹ | percentage ligand not blocked at 1 µg/ml [7]: 7% | percentage ligand not blocked at 10 µg/ml [7]: 7% | Kd [8]: ~12 nM | EC50 [9]: 0.08 µg/mL | Kd [10]: 11.4 nM | koff [11]: 0.0062 s⁻¹ | kon [11]: 532000 M⁻¹ s⁻¹

B3: TM3B105 (antibody, human IgG2, kappa, V domains shown)
VH: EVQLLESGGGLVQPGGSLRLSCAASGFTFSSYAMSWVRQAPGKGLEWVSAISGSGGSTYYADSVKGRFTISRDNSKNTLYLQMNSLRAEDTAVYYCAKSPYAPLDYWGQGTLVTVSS
VL: B2 VL with R30N, N31D, H49Y, R91G, N92G, Y93H, W94A, L96I
notes: IgG2sigma/kappa; VH 146, VL 156; also called TM3H24/TM3L33
Galectin 9 Inhibition, % inhibition (maximal) [1]: 69.8% | EC50 [2]: 0.03 µg/mL | EC50 [3]: 0.46 µg/mL

B5: PD1B71 (antibody, V domains shown)
VH: QVQLVQSGAEVKKPGSSVKVSCKASGGTFSSYAISWVRQAPGQGLEWMGGIIPIFGTANYAQKFQGRVTITADESTSTAYMELSSLRSEDTAVYYCARGTLDRTGHLDYWGQGTLVTVSS
VL: EIVLTQSPATLSLSPGERATLSCRASQSVSSYLAWYQQKPGQAPRLLIYDASNRATGIPARFSGSGSGTDFTLTISSLEPEDFAVYYCQQRSNWPLTFGQGTKVEIK
notes: Tested as IgG2sigma/kappa; also called PD1H108/PH9L3
Kd [12]: 22.4 nM | koff [12]: 0.0219 s⁻¹ | kon [12]: 933000 M⁻¹ s⁻¹ | Kd [13]: 61.4 nM | Kd [14]: 23.5 nM | koff [14]: 0.0225 s⁻¹ | kon [14]: 955000 M⁻¹ s⁻¹ | Kd [15]: 44.4 nM | koff [15]: 0.0185 s⁻¹ | kon [15]: 337000 M⁻¹ s⁻¹ | Kd [6]: 66.8 nM | koff [6]: 0.0203 s⁻¹ | kon [6]: 304000 M⁻¹ s⁻¹ | IC50 [16]: 0.014 to 0.015 µg/mL | percentage ligand not blocked at 1 µg/ml [7]: 6% | percentage ligand not blocked at 10 µg/ml [7]: 9% | EC50 [9]: 0.13 µg/mL | IC50 [17]: 0.024 µg/mL | Kd [18]: 120 nM | koff [18]: 0.0277 s⁻¹ | kon [18]: 231000 M⁻¹ s⁻¹ | koff [19]: 0.023 s⁻¹ | IC50 [20]: 0.035 µg/mL | koff [21]: 0.0207 s⁻¹ | kon [21]: 417000 M⁻¹ s⁻¹ | Kd [22]: 52 nM | koff [22]: 0.0196 s⁻¹ | kon [22]: 377000 M⁻¹ s⁻¹ | Kd [11]: 49.9 nM | koff [11]: 0.0273 s⁻¹ | kon [11]: 548000 M⁻¹ s⁻¹ | EC50 [23]: 0.13 to 0.47 µg/mL | Kd [24]: 24.7 nM | kon [24]: 976000 M⁻¹ s⁻¹

B6: PD1B195 (antibody, V domains shown)
VH: B2 VH with G56D, N109S
VL: B5 VL with S30D, S92E, N93Y
notes: also called PD1H170/PD1L67
Kd [13]: 0.97 nM | kon [13]: 434000 M⁻¹ s⁻¹ | Kd [14]: 1.23 nM | koff [14]: 0.00152 s⁻¹ | kon [14]: 1.23e+06 M⁻¹ s⁻¹ | Kd [15]: 0.91 nM | kon [15]: 430000 M⁻¹ s⁻¹ | koff [25]: 0.000396 s⁻¹ | koff [21]: 0.000419 s⁻¹ | Kd [22]: 0.94 nM | koff [22]: 0.000408 s⁻¹ | kon [22]: 432000 M⁻¹ s⁻¹ | CMV EC50, nM (IFN-γ induction) [26]: 1.64 nM
